± gives the standard deviation of the averaged measurements.
test system: Saccharomyces cerevisiae; test: protein stability index of tFT-peptide fusion (C-terminal peptide) (PSI (0-1 scale)); higher = more stable (slower turnover); details: genetic background: wild type; temperature: 30 C
Protocol: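 Multiplexed protein stability (MPS) profiling in S. cerevisiae. Random 12-aa peptides (tFT-X12 library) are fused to the C-terminus of a sfGFP-mCherry tandem fluorescent timer, after mCherry and a GGGS linker. Cells are FACS-sorted into 8 mCherry/sfGFP bins and deep-sequenced. The protein stability index (PSI) is the read-weighted bin average, scaled from 0 (unstable) to 1 (stable). Only peptides with >10 reads are reported; cells were grown at 30 °C in SC-His with glucose.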
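Further: PSI is a weighted mean of sequencing reads over stability bins, variants kept only with over 10 reads, mCherry proximal and sfGFP distal, peptide attached via GGGS linker.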

Row | Sequence | protein stability index
1 | IQSRDDTVEGRK | 0.63 ± 0.0095
2 | IRAKKLNKSNNK | 0.7028 ± 0.0053
3 | IREQQKNQNHKE | 0.642 ± 0.051
4 | IRGAARRRTQGY | 0.731 ± 0.038
5 | IRGGGGLGGGGV | 0.703 ± 0.023
6 | IRGIKSRKFTSV | 0.753 ± 0.0079
7 | IRGYSVKRIRED | 0.683 ± 0.045
8 | IRHSTRTRPSSV | 0.745 ± 0.03
9 | IRNACRINESQC | 0.698 ± 0.017
10 | IRPFSPAPPRYP | 0.722 ± 0.075
11 | IRPPPPPPPRAA | 0.59 ± 0.07
12 | IRRSVVRCLFTE | 0.707 ± 0.056
13 | IRTITSVQTFPE | 0.673 ± 0.029
14 | ISCFRLGFVRKI | 0.535 ± 0.0058
15 | ISCGERSRGGGK | 0.6122 ± 0.0029
16 | ISEGKTIIYCLW | 0.523 ± 0.081
17 | ISEGNNQNLSQT | 0.689 ± 0.011
18 | ISEGSSRFRTSL | 0.6542 ± 0.0025
19 | ISFVFSDSLFPI | 0.785 ± 0.012
20 | ISGIKNKKKKGT | 0.684 ± 0.066
21 | ISHPTPQSVPAI | 0.612 ± 0.0063
22 | ISLGVDFSFCSL | 0.7014 ± 0.0042
23 | ISLTSYVCGRVL | 0.648 ± 0.014
24 | ISLWALSQLPVP | 0.79 ± 0.19
25 | ISPGWLSRLWVR | 0.629 ± 0.0083

Row | Sequence | protein stability index
26 | ISPRLGLPLAPL | 0.732 ± 0.067
27 | ISPTTFSTHDRC | 0.665 ± 0.077
28 | ISQAIMTNPIKE | 0.598 ± 0.14
29 | ISVPMPSFGPLP | 0.6938 ± 0.002
30 | ISVPPFPAPPPP | 0.745 ± 0.13
31 | ISYLSILTSCPW | 0.65423 ± 0.00026
32 | ISYQVDIIKGKI | 0.6781 ± 0.00071
33 | ITFTCRHQGKKK | 0.759 ± 0.095
34 | ITRVGSLENSQV | 0.635 ± 0.013
35 | ITSSPNVGKTTN | 0.713 ± 0.024
36 | ITSWCNVFLGRA | 0.71 ± 0.018
37 | IVADKSPLSSPP | 0.6947 ± 0.0017
38 | IVENSLEEKERR | 0.673 ± 0.056
39 | IVGIEGYNEIKT | 0.803 ± 0.27
40 | IVKFVRAIGRKK | 0.664 ± 0.028
41 | IVPPPHRHRRSI | 0.824 ± 0.064
42 | IVSNLILSKRCN | 0.652 ± 0.064
43 | IVTLPTNPYTPV | 0.717 ± 0.046
44 | IVTQGCLFFLVR | 0.687 ± 0.038
45 | IWTSFKRRRWNF | 0.532 ± 0.033
46 | IWVGNEENEEII | 0.669 ± 0.082
47 | IYSWSAALFHCR | 0.75 ± 0.1
48 | IYVWALSPVTLP | 0.628 ± 0.019
49 | KAGCDYYHRRSF | 0.675 ± 0.061
50 | KAGDRRPDNHSN | 0.66 ± 0.064

Row | Sequence | protein stability index
51 | KANIKGIKTRIT | 0.642 ± 0.076
52 | KARNIVESGKTQ | 0.722 ± 0.038
53 | KASAASLFILMS | 0.611 ± 0.012
54 | KASEALGYTSNE | 0.675 ± 0.037
55 | KATNLNKVRRWE | 0.693 ± 0.048
56 | KCCRVTCCGGLR | 0.65 ± 0.028
57 | KCLALSAGWIAT | 0.627 ± 0.033
58 | KCRGRGRQEAFE | 0.6643 ± 0.0018
59 | KCVDSREKITMD | 0.672 ± 0.072
60 | KDGGRLRVDQWI | 0.706 ± 0.076
61 | KDKKERTTEKKT | 0.693 ± 0.13
62 | KDLFDLYLKRLL | 0.65 ± 0.0098
63 | KDVYEKHLNKQT | 0.722 ± 0.1
64 | KEDGEIIDRYVL | 0.616 ± 0.074
65 | KEEKLKNKITKY | 0.679 ± 0.011
66 | KEEKRMKLKKLQ | 0.537 ± 0.082
67 | KEEYSYQRVGEL | 0.661 ± 0.015
68 | KEGDMWRVSTLD | 0.682 ± 0.016
69 | KELGGSSEITEI | 0.658 ± 0.072
70 | KELIGITYKNSS | 0.6766 ± 0.0058
71 | KEMRCRKKKEGK | 0.683 ± 0.048
72 | KEQNKKQKAKDL | 0.719 ± 0.1
73 | KEQYFKGSKKPI | 0.651 ± 0.029
74 | KERKNKKINRKF | 0.686 ± 0.093
75 | KEVDGRALVAEE | 0.655 ± 0.035

Row | Sequence | protein stability index
76 | KEVNEDIDKAKS | 0.782 ± 0.18
77 | KEWGGEGRDAWG | 0.6834 ± 0.0061
78 | KEYKKKKKKIDK | 0.671 ± 0.022
79 | KFIVQNENSGQC | 0.677 ± 0.041
80 | KFKVLKVLEVRL | 0.6453 ± 0.0019
81 | KFLQRTPGHSSE | 0.699 ± 0.048
82 | KGDCGGRGCGRH | 0.682 ± 0.0076
83 | KGKKTKQKRAKK | 0.6521 ± 0.0064
84 | KGKNTEKEEEEK | 0.685 ± 0.019
85 | KGQPTTRVKEEW | 0.654 ± 0.0091
86 | KGRAERKKDKKR | 0.684 ± 0.025
87 | KGRAGTDVPLAR | 0.712 ± 0.052
88 | KGRQVDQALVRG | 0.634 ± 0.019
89 | KGTRKPSTKIIV | 0.667 ± 0.074
90 | KGWGDGPGSYVN | 0.68 ± 0.035
91 | KGYEGGRRCELE | 0.696 ± 0.039
92 | KHCFDIEILRYQ | 0.664 ± 0.016
93 | KHFLFSVVHFSG | 0.696 ± 0.028
94 | KHSTTSRCVWYT | 0.627 ± 0.13
95 | KIDEQNKNKMGM | 0.615 ± 0.082
96 | KIDKLRKRQRKK | 0.664 ± 0.017
97 | KIENQKKRLQRT | 0.708 ± 0.028
98 | KIGVHRGRGGRM | 0.614 ± 0.13
99 | KIKESIKIKKKR | 0.6789 ± 0.0027
100 | KIMIGQPDGINV | 0.65 ± 0.015

Row | Sequence | protein stability index
101 | KIQLTTMKNHGK | 0.685 ± 0.013
102 | KIRRIHRNVVKG | 0.786 ± 0.055
103 | KKEEQEKKNRNK | 0.711 ± 0.027
104 | KKEGIWEGERVG | 0.724 ± 0.011
105 | KKELKKRNKAKK | 0.66 ± 0.012
106 | KKENKERNNEYE | 0.708 ± 0.081
107 | KKGKQQKTEKNG | 0.802 ± 0.26
108 | KKGKSKKKGKKT | 0.6906 ± 0.0018
109 | KKGVSNKVSGFT | 0.719 ± 0.014
110 | KKIKKKKNKKQE | 0.735 ± 0.075
111 | KKKIERKKNKEK | 0.743 ± 0.071
112 | KKKKEKNKHNIR | 0.72 ± 0.009
113 | KKKKKIEQRKQE | 0.67 ± 0.017
114 | KKKKKKKESRSS | 0.68 ± 0.045
115 | KKKKKKKKNMKR | 0.683 ± 0.024
116 | KKKKKKKKTNKE | 0.656 ± 0.11
117 | KKKKKKKMTNLK | 0.809 ± 0.054
118 | KKKKKKKQIKKK | 0.747 ± 0.026
119 | KKKKKKKRNGAP | 0.667 ± 0.05
120 | KKKKKKRIREKR | 0.721 ± 0.048
121 | KKKKKKRNKQKN | 0.752 ± 0.043
122 | KKKKKSEIPKIT | 0.686 ± 0.084
123 | KKKKNKLRNKQE | 0.656 ± 0.015
124 | KKKKNNKETKNK | 0.705 ± 0.015
125 | KKKKPKNKSKDK | 0.634 ± 0.095

Row | Sequence | protein stability index
126 | KKKKPKQKQKET | 0.686 ± 0.016
127 | KKKKTKKKKINI | 0.605 ± 0.0077
128 | KKKKTKKSKQKK | 0.721 ± 0.0089
129 | KKKLKRTIKKIA | 0.481 ± 0.034
130 | KKKNEKQNRLKN | 0.769 ± 0.029
131 | KKKNKENKKKKK | 0.737 ± 0.023
132 | KKKREKKKENTK | 0.7108 ± 0.0067
133 | KKKRIERKEKGE | 0.676 ± 0.059
134 | KKKRMKIKCIGI | 0.647 ± 0.063
135 | KKKTIKNNERSK | 0.69 ± 0.071
136 | KKKYKKNKKKNK | 0.65 ± 0.033
137 | KKLGLRLTFLHC | 0.564 ± 0.043
138 | KKNEEKRRGEGK | 0.67 ± 0.049
139 | KKNERKEKNNTN | 0.673 ± 0.014
140 | KKNETKQEKNTR | 0.689 ± 0.026
141 | KKNEVIKKNLRK | 0.616 ± 0.063
142 | KKNIKKKRNIEK | 0.625 ± 0.04
143 | KKNIKKKTKQKE | 0.696 ± 0.007
144 | KKNKNKEYCKVK | 0.734 ± 0.082
145 | KKNNNINKHTST | 0.6652 ± 0.0058
146 | KKNYEKPIRKYQ | 0.642 ± 0.02
147 | KKQHTKKKKKKR | 0.752 ± 0.041
148 | KKQKKQKKKSHK | 0.715 ± 0.047
149 | KKRDKKKLRRVE | 0.672 ± 0.044
150 | KKRGKNSKAQRE | 0.694 ± 0.013

Row | Sequence | protein stability index
151 | KKRHYSCYKNTN | 0.725 ± 0.015
152 | KKSIVEARLSNM | 0.58 ± 0.075
153 | KKTNTQTKKKTK | 0.709 ± 0.075
154 | KKTQKNIKKKAK | 0.679 ± 0.025
155 | KKTRRGSNKKEG | 0.681 ± 0.025
156 | KKTSQKQKGKRQ | 0.671 ± 0.12
157 | KLCGIYMVGGKK | 0.65093 ± 0.00038
158 | KLGLLKVRVCDG | 0.608 ± 0.0061
159 | KLGRWGARGSGR | 0.655 ± 0.021
160 | KLKTKQNKERNK | 0.757 ± 0.076
161 | KLREKKLLKIAE | 0.679 ± 0.042
162 | KLSSQAWMISEK | 0.695 ± 0.055
163 | KLVGFRPHAWWF | 0.701 ± 0.016
164 | KNIIEKKIKKRK | 0.711 ± 0.0049
165 | KNKKEKKKVKRT | 0.687 ± 0.026
166 | KNKKKKKTKKKK | 0.792 ± 0.079
167 | KNKKKNKNNKKK | 0.7048 ± 0.00079
168 | KNKKNKKKTPTT | 0.727 ± 0.013
169 | KNNVVKIEEEKK | 0.751 ± 0.013
170 | KNRHWNKKIRKC | 0.6533 ± 0.0065
171 | KNRKSYTINSRK | 0.656 ± 0.055
172 | KPKANTEKIPIQ | 0.68 ± 0.018
173 | KPKHNKKILEKK | 0.671 ± 0.037
174 | KPKLSHPQPLRI | 0.699 ± 0.016
175 | KPLPPPEFRPHP | 0.69 ± 0.02

Row | Sequence | protein stability index
176 | KPRFRATPRQTT | 0.713 ± 0.037
177 | KPRLARLSLSLL | 0.784 ± 0.14
178 | KQKQRKERIKRK | 0.688 ± 0.069
179 | KQVIIEKSIQQR | 0.661 ± 0.051
180 | KRAPEPPTPPAP | 0.672 ± 0.015
181 | KRGKNKKRKQKK | 0.716 ± 0.0076
182 | KRNKITKKDRIN | 0.613 ± 0.031
183 | KRNKKCKKIKKK | 0.677 ± 0.11
184 | KRRNKEHNKIRD | 0.652 ± 0.052
185 | KSAGNWSKGKRE | 0.713 ± 0.083
186 | KSGGWLWVGGGG | 0.748 ± 0.039
187 | KSHKKKKKNKNF | 0.539 ± 0.0035
188 | KSKGGGTEPNRR | 0.695 ± 0.009
189 | KSKKKKKNKTNR | 0.6792 ± 0.0022
190 | KSKRKKKKQTKR | 0.653 ± 0.024
191 | KSVGKGIIQLRL | 0.726 ± 0.042
192 | KTECMAIEKTLV | 0.686 ± 0.033
193 | KTENGRSNSETR | 0.686 ± 0.074
194 | KTGLMRGHEVAS | 0.673 ± 0.03
195 | KTGNKKQRKKKV | 0.753 ± 0.032
196 | KTHTIGPSPYYD | 0.649 ± 0.0088

From the supplement of paper PMC10724198
